According to the RNAGym collection of RNA variant scans (doi:10.1073/pnas.2313332121):

B1: TPR t1 (parent)
chain: GACCAAUCUGCCCUCAGAGCUCGAGAACAUCUUCGGAUGCAGAGGAGGCAGGCUUCGGUGGCGCGAUAGCGCCAACGUCCUCAACCUCCAAUGCAUCCCACCACAUGAUGAUGCCUGAAGAGCCUUGGUUUUUUG

Variants of: B1
Experiment: polymerase ribozyme fitness, log enrichment relative to wild type (log ratio); higher = more active; in vitro selection for triplet polymerase activity
How it was run: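 A single round of triplicate in vitro selection, including frozen incubation at −7 °C, was applied to PCR-built, transcribed mutant libraries of each subunit of a heterodimeric triplet polymerase ribozyme. Illumina sequencing of input and output libraries retained genotypes with ≥10 input reads and ≥1 read per output. Fitness is the base-2 logarithm of genotype enrichment divided by wild-type enrichment, from inverse-variance-weighted replicate averages.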
For A46C G63U, the “polymerase ribozyme fitness (log ratio)” value was -2.01. For A46U C49G C70U A84C, the “polymerase ribozyme fitness (log ratio)” value was -2.21. In the case of A46U C101U A121U, the “polymerase ribozyme fitness (log ratio)” value is reported as 0.775. In the case of G47A C70A C82G, the “polymerase ribozyme fitness (log ratio)” value is reported as -2.41. With G47A G60U the “polymerase ribozyme fitness (log ratio)” value was -0.146. For G47A G60C, the “polymerase ribozyme fitness (log ratio)” value was -1.05. In the case of G47A G60A, the “polymerase ribozyme fitness (log ratio)” value is reported as 1.12. With A46U C56U C101U the “polymerase ribozyme fitness (log ratio)” value was -1.33. In the case of A46U C53A C73A, the “polymerase ribozyme fitness (log ratio)” value is reported as -0.67. For G47A C56U A105U, the “polymerase ribozyme fitness (log ratio)” value was -2.73. In the case of A46U U59C C101U A121U, the “polymerase ribozyme fitness (log ratio)” value is reported as 0.445. With G47A C73G U125A G128A the “polymerase ribozyme fitness (log ratio)” value was -3.1. In the case of A46U G113A, the “polymerase ribozyme fitness (log ratio)” value is reported as -1.78. For A46U G47A, the “polymerase ribozyme fitness (log ratio)” value was -2.18. With A46U C101U U132C the “polymerase ribozyme fitness (log ratio)” value was -1.92. With G47A A50U C80A C88U A111G the “polymerase ribozyme fitness (log ratio)” value was -4.88. In the case of G47A A50U C53A U78G, the “polymerase ribozyme fitness (log ratio)” value is reported as -2.33. For G47A G63A C85G, the “polymerase ribozyme fitness (log ratio)” value was -3.45. In the case of A46U C82G U87G, the “polymerase ribozyme fitness (log ratio)” value is reported as -1.06. For G47A G60C G71U A119U, the “polymerase ribozyme fitness (log ratio)” value was -6.29. For G47A G48A C53G G69U U132A, the “polymerase ribozyme fitness (log ratio)” value was -0.097. With A46G C72U C73G G117C the “polymerase ribozyme fitness (log ratio)” value was -4.79. In the case of A46U G71A C82G U87G, the “polymerase ribozyme fitness (log ratio)” value is reported as -1.78. With A46U G57C C79U C85A G120U the “polymerase ribozyme fitness (log ratio)” value was -3.83. In the case of A46U C73G G77A G127C, the “polymerase ribozyme fitness (log ratio)” value is reported as -3.61. With A46U C49U G63U C115U the “polymerase ribozyme fitness (log ratio)” value was -5.27. In the case of A46U C49U U92A U106A, the “polymerase ribozyme fitness (log ratio)” value is reported as -7.34. In the case of A46U C49U C72A, the “polymerase ribozyme fitness (log ratio)” value is reported as 0.459. With A46G G60A the “polymerase ribozyme fitness (log ratio)” value was 0.0971. With G47A C72G G113U G122A G127U the “polymerase ribozyme fitness (log ratio)” value was -4.96. For A46U G52U C104U G110A, the “polymerase ribozyme fitness (log ratio)” value was -3.02. With A46U G110C the “polymerase ribozyme fitness (log ratio)” value was -4.29. With A46U G110U the “polymerase ribozyme fitness (log ratio)” value was -2.33. For A46G C49A C56A A66C, the “polymerase ribozyme fitness (log ratio)” value was -2.64. For G47C, the “polymerase ribozyme fitness (log ratio)” value was -1.82. For G47A, the “polymerase ribozyme fitness (log ratio)” value was -0.989. For A46U C79U A105G, the “polymerase ribozyme fitness (log ratio)” value was -3.11. For A46C C80G U130C, the “polymerase ribozyme fitness (log ratio)” value was -6.42. With G47A C72A C82G C88A the “polymerase ribozyme fitness (log ratio)” value was -2.25. With A46U G60A the “polymerase ribozyme fitness (log ratio)” value was -1.55. With A46C G69C C85A the “polymerase ribozyme fitness (log ratio)” value was -3.49. For A46U G65C, the “polymerase ribozyme fitness (log ratio)” value was -7.92. For A46U G65A, the “polymerase ribozyme fitness (log ratio)” value was -4.9. For A46U C79U, the “polymerase ribozyme fitness (log ratio)” value was -2.22. For G47A C72U A83U, the “polymerase ribozyme fitness (log ratio)” value was -1.18. For G47A C53G C85A C89A A91C C94A U116C G120C, the “polymerase ribozyme fitness (log ratio)” value was -5.21. For A46U C62U C94G U131G, the “polymerase ribozyme fitness (log ratio)” value was -4.7. With A46G C53G A111G the “polymerase ribozyme fitness (log ratio)” value was 1.36. With G47A U125A the “polymerase ribozyme fitness (log ratio)” value was -1.31. For G47A U131C, the “polymerase ribozyme fitness (log ratio)” value was -1.16. In the case of G47A A50U U81A, the “polymerase ribozyme fitness (log ratio)” value is reported as -0.591. In the case of A46U G63U U96G, the “polymerase ribozyme fitness (log ratio)” value is reported as -2.43. In the case of G47A G61U G120U G127A, the “polymerase ribozyme fitness (log ratio)” value is reported as -0.871. For A46U C73A, the “polymerase ribozyme fitness (log ratio)” value was -1.49. In the case of G47A C62A, the “polymerase ribozyme fitness (log ratio)” value is reported as -1.78. For G47A C62U, the “polymerase ribozyme fitness (log ratio)” value was -1.85. In the case of G47C C73U, the “polymerase ribozyme fitness (log ratio)” value is reported as -1.61. For A46U U81C C101G, the “polymerase ribozyme fitness (log ratio)” value was -4.31. For A46U C64U U109A C124A, the “polymerase ribozyme fitness (log ratio)” value was -5.73. For A46U U112G, the “polymerase ribozyme fitness (log ratio)” value was -1.08. In the case of G47A C86A G113A, the “polymerase ribozyme fitness (log ratio)” value is reported as -2.16. In the case of A46U U81C A90G C114U, the “polymerase ribozyme fitness (log ratio)” value is reported as -3.58. For G47A C49U G65U G69U C86U G127U, the “polymerase ribozyme fitness (log ratio)” value was -4.94. With A46U U78C C124A the “polymerase ribozyme fitness (log ratio)” value was 0.325. For A46C G120A U126A, the “polymerase ribozyme fitness (log ratio)” value was -0.908. With G47A A50G the “polymerase ribozyme fitness (log ratio)” value was -1.37. With G47C C56U C73U A105U the “polymerase ribozyme fitness (log ratio)” value was -4.05. In the case of A46U C53G, the “polymerase ribozyme fitness (log ratio)” value is reported as -0.865. With A46G C49U C86A G93A the “polymerase ribozyme fitness (log ratio)” value was -2.56. With A46G G69C G113A the “polymerase ribozyme fitness (log ratio)” value was -3.12. For A46G C86A G120C, the “polymerase ribozyme fitness (log ratio)” value was -0.884. In the case of A46G C76U C94G G120C, the “polymerase ribozyme fitness (log ratio)” value is reported as -1.42. For A46C U112A, the “polymerase ribozyme fitness (log ratio)” value was 0.587. With G47A G69A the “polymerase ribozyme fitness (log ratio)” value was -3.08. For A46U C49U A74U C102U, the “polymerase ribozyme fitness (log ratio)” value was -4.53. With G47A G58A G60A C79U the “polymerase ribozyme fitness (log ratio)” value was -2.31. For A46G A74G U92C, the “polymerase ribozyme fitness (log ratio)” value was -0.91. With G47A C123G the “polymerase ribozyme fitness (log ratio)” value was 0.634. For A46U G48A G52C G61U G120A, the “polymerase ribozyme fitness (log ratio)” value was -0.93. For A46U G61C C79U, the “polymerase ribozyme fitness (log ratio)” value was -1.59. With A46C U87C C89G U92C the “polymerase ribozyme fitness (log ratio)” value was -2.75. With A46U G48A G52C G61A G120A the “polymerase ribozyme fitness (log ratio)” value was -1.18. In the case of A46C C86U C88A A121C U130C, the “polymerase ribozyme fitness (log ratio)” value is reported as 0.304.
